From patent US20200362034A1

Target: human glucagon ligand peptide-1 receptor (GLP1R) (human) (UniProt P43220)
Assay: cell-based or functional assay

human glucagon ligand peptide-1 receptor (GLP1R) (human), sequence (P43220 24-463): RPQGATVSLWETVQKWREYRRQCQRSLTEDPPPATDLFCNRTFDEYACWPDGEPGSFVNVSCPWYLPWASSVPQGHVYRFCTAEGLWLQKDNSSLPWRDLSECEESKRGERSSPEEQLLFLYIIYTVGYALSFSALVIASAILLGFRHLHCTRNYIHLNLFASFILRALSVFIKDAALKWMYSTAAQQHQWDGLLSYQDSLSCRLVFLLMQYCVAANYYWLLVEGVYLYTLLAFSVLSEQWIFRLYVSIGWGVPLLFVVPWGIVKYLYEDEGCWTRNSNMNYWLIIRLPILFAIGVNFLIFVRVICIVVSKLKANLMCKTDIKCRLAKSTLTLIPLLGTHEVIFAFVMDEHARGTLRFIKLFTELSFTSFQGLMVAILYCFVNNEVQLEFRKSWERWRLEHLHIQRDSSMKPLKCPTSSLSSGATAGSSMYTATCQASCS

Substance: Extendin-4 (peptide)
- EC 50 (nM), cAMP Hunter bioassay on CHO-K1 cells overexpressing human GLP1R: 0.46 nM
